Measured values from the supplement of paper PMC10126150.
± gives the standard deviation of the averaged measurements.

system: ATP; assay: switch fluorescence ratio, 500 uM ATP over buffer (Cy3 cluster intensity, sum of 5 cycles each) (fold (ratio)); higher = stronger signal-on switching upon ATP binding; sequences stand for … in TCGTCGGCAGCGTCAGATGTGTATAAGAGACAGTTTTTTTTTTTTTTTTTTTTTTTTT…TC; settings: aptamer strand: ATP DNA aptamer (quencher-CACCTGGGGGAGTATTGCGGAGGAAGG + anchor), 100 nM annealed; ATP concentration: 500 uM
Procedure, shortened: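 Clusters with intensities outside 100-1000 RFU were excluded. The remaining Cy3-labelled switching-strand clusters on a modified Illumina MiSeq flow-cell had been annealed to 100 nM quencher-labelled ATP aptamer and imaged in selection buffer, then after 15 min with 500 uM ATP at 22 °C, for five cycles separated by NaOH stripping and re-annealing. The fluorescence ratio, averaged per switch-domain sequence, is each cluster's summed target-cycle Cy3 intensity over its summed buffer-cycle Cy3 intensity.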
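Further: ATP exposure 15 min at 22 °C before imaging.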

| Sequence | switch fluorescence ratio |
| --- | --- |
| CAGACAGGGG | 1.05 ± 0.02 |
| CAGACCAGCT | 1.02 ± 0.036 |
| CAGACGGAGT | 1.039 ± 0.01 |
| CAGACGGGGG | 1.01 ± 0.026 |
| CAGACGGGTC | 1 ± 0.041 |
| CAGAGACCTG | 1.02 ± 0.057 |
| CAGAGAGGTC | 1.03 ± 0.039 |
| CAGAGATTCT | 0.992 ± 0.0077 |
| CAGAGGGACT | 1.01 ± 0.023 |
| CAGAGGGCGG | 0.981 ± 0.047 |
| CAGAGGTAGG | 0.973 ± 0.023 |
| CAGAGGTTCC | 1.05 ± 0.042 |
| CAGAGTACGT | 1.036 ± 0.0091 |
| CAGAGTCTGT | 0.999 ± 0.022 |
| CAGAGTGTGG | 0.955 ± 0.026 |
| CAGAGTTAAT | 0.993 ± 0.045 |
| CAGAGTTTAG | 0.973 ± 0.032 |
| CAGATCCGGG | 1 ± 0.024 |
| CAGATGCGGA | 0.984 ± 0.017 |
| CAGATTTTTA | 1.01 ± 0.029 |
| CAGCAACTCA | 1.65 ± 0.024 |
| CAGCAGAGGG | 1.01 ± 0.01 |
| CAGCGGCGGA | 0.981 ± 0.029 |
| CAGCGGGGGA | 1.012 ± 0.0014 |
| CAGCGGGGGT | 1.03 ± 0.05 |

| Sequence | switch fluorescence ratio |
| --- | --- |
| CAGCGTATTT | 1.03 ± 0.036 |
| CAGCGTGGCA | 1 ± 0.021 |
| CAGCGTTGTT | 0.993 ± 0.018 |
| CAGCTAACTT | 1.0399 ± 0.00052 |
| CAGCTACGTC | 1.01 ± 0.04 |
| CAGCTAGAGG | 1 ± 0.037 |
| CAGCTGAGGC | 0.976 ± 0.038 |
| CAGCTGGGGA | 1.01 ± 0.055 |
| CAGCTGGGGG | 1 ± 0.024 |
| CAGGAAAGCA | 0.994 ± 0.031 |
| CAGGAAAGCT | 1.234 ± 0.0051 |
| CAGGAATGCG | 1.04 ± 0.055 |
| CAGGACTTGC | 0.995 ± 0.03 |
| CAGGAGACGC | 1.05 ± 0.036 |
| CAGGAGGAGA | 1.025 ± 0.01 |
| CAGGAGGGGT | 1.03 ± 0.025 |
| CAGGAGTGTA | 1.03 ± 0.036 |
| CAGGATGGGC | 0.977 ± 0.027 |
| CAGGCAAGCG | 1.04 ± 0.026 |
| CAGGCAGCAT | 1.32 ± 0.089 |
| CAGGCAGGTC | 0.997 ± 0.024 |
| CAGGCATAAG | 0.9805 ± 0.0036 |
| CAGGCATAGG | 1.06 ± 0.033 |
| CAGGCATGAG | 1.01 ± 0.011 |
| CAGGCCGTAT | 1.01 ± 0.016 |

| Sequence | switch fluorescence ratio |
| --- | --- |
| CAGGCGAGTG | 0.96 ± 0.014 |
| CAGGCGGAGA | 0.969 ± 0.026 |
| CAGGCGGCCC | 1.019 ± 0.01 |
| CAGGCGGGTG | 1.06 ± 0.11 |
| CAGGCTAGGT | 0.9873 ± 0.0049 |
| CAGGGAACGG | 1.05 ± 0.022 |
| CAGGGACATT | 1.08 ± 0.067 |
| CAGGGACGGA | 1.02 ± 0.017 |
| CAGGGACGTT | 0.987 ± 0.02 |
| CAGGGAGTAG | 1.01 ± 0.021 |
| CAGGGCATGG | 1.01 ± 0.0073 |
| CAGGGCCTGT | 1.01 ± 0.028 |
| CAGGGGAGGT | 1.02 ± 0.014 |
| CAGGGGATGT | 0.985 ± 0.013 |
| CAGGGGATTA | 1 ± 0.045 |
| CAGGGGCAGC | 0.927 ± 0.05 |
| CAGGGGCGCA | 1 ± 0.075 |
| CAGGGGCTCG | 1.01 ± 0.036 |
| CAGGGGGGTA | 1.01 ± 0.016 |
| CAGGGGGGTT | 1.09 ± 0.21 |
| CAGGGGTATC | 1.01 ± 0.033 |
| CAGGGGTATT | 1.32 ± 0.42 |
| CAGGGGTCTA | 0.9957 ± 0.004 |
| CAGGGGTTA | 1.03 ± 0.044 |
| CAGGGGTTGA | 0.987 ± 0.035 |

| Sequence | switch fluorescence ratio |
| --- | --- |
| CAGGGGTTGC | 1.01 ± 0.013 |
| CAGGGTATTT | 0.981 ± 0.032 |
| CAGGGTGATG | 0.985 ± 0.024 |
| CAGGGTGGAC | 1.04 ± 0.04 |
| CAGGGTTGGT | 0.977 ± 0.033 |
| CAGGGTTTCG | 1.02 ± 0.078 |
| CAGGTAAATG | 0.9961 ± 0.0027 |
| CAGGTCTTTC | 1.02 ± 0.021 |
| CAGGTGAGTG | 1.251 ± 0.0088 |
| CAGGTGCGGG | 1.1694 ± 0.0009 |
| CAGGTGCTGG | 1.167 ± 0.0018 |
| CAGGTGGAGA | 1.0094 ± 0.00078 |
| CAGGTGTGGC | 1.11 ± 0.013 |
| CAGGTGTTTG | 1.39 ± 0.055 |
| CAGGTTACGC | 1.01 ± 0.027 |
| CAGGTTGGGT | 1.001 ± 0.0086 |
| CAGGTTGTGC | 0.98 ± 0.055 |
| CAGGTTTAGT | 0.9682 ± 0.0043 |
| CAGTAACTGT | 1.02 ± 0.027 |
| CAGTACTCTG | 0.986 ± 0.031 |
| CAGTAGAATT | 1.02 ± 0.023 |
| CAGTAGTGTC | 0.985 ± 0.041 |
| CAGTCAGCGG | 1.01 ± 0.02 |
| CAGTCATGGG | 1 ± 0.035 |
| CAGTCATTCG | 0.99 ± 0.016 |

| Sequence | switch fluorescence ratio |
| --- | --- |
| CAGTCCGGCA | 1.05 ± 0.021 |
| CAGTCCGGTC | 1.06 ± 0.014 |
| CAGTGAGGGT | 0.981 ± 0.019 |
| CAGTGCACTC | 0.9918 ± 0.0014 |
| CAGTGCGTGG | 0.988 ± 0.017 |
| CAGTGCGTGT | 1 ± 0.03 |
| CAGTGGCCTA | 0.99094 ± 0.00045 |
| CAGTGGGAGA | 1.025 ± 0.0088 |
| CAGTGGGGCA | 1.03 ± 0.053 |
| CAGTGGGGGC | 1.05 ± 0.087 |
| CAGTGGTCGT | 0.999 ± 0.011 |
| CAGTGTGGTG | 1 ± 0.049 |
| CAGTTAAAGG | 1.01 ± 0.017 |
| CAGTTACACG | 0.995 ± 0.023 |
| CAGTTAGGGG | 1.02 ± 0.013 |
| CAGTTCATGA | 1.01 ± 0.027 |
| CAGTTCTCGT | 0.969 ± 0.018 |
| CAGTTGATGC | 1.01 ± 0.096 |
| CAGTTGCTGA | 0.999 ± 0.011 |
| CAGTTGGGGT | 0.997 ± 0.022 |
| CAGTTGTAAA | 0.9699 ± 0.0067 |
| CAGTTGTTGG | 0.984 ± 0.011 |
| CAGTTTTATC | 1.012 ± 0.0039 |
| CAGTTTTCGG | 1 ± 0.021 |
| CAGTTTTGAG | 0.9917 ± 0.0014 |

| Sequence | switch fluorescence ratio |
| --- | --- |
| CATAAAAGAT | 1.01 ± 0.017 |
| CATAAAGATG | 1.053 ± 0.01 |
| CATAACCGGT | 1.01 ± 0.027 |
| CATAATAC | 1.82 ± 0.4 |
| CATAATTTTT | 0.991 ± 0.062 |
| CATACAATTG | 1.06 ± 0.091 |
| CATACACAGG | 1.26 ± 0.078 |
| CATACATCCG | 1.07 ± 0.038 |
| CATAGACGGG | 1.03 ± 0.081 |
| CATAGATAGG | 0.992 ± 0.011 |
| CATAGGATCG | 0.949 ± 0.038 |
| CATAGTGTTT | 1.01 ± 0.012 |
| CATAGTTTGG | 1.07 ± 0.034 |
| CATATAATTC | 0.975 ± 0.042 |
| CATATAGGGC | 0.985 ± 0.02 |
| CATATATCGG | 1.02 ± 0.012 |
| CATATATTGG | 1.02 ± 0.05 |
| CATATCACAT | 1.024 ± 0.0062 |
| CATATCGAAA | 1.013 ± 0.0033 |
| CATATGGGGG | 1.02 ± 0.046 |
| CATATGTTTT | 1 ± 0.035 |
| CATATTATCA | 1.02 ± 0.024 |
| CATATTCAAT | 1 ± 0.015 |
| CATATTTGCC | 1.03 ± 0.059 |
| CATCAAGGCA | 1.01 ± 0.019 |

| Sequence | switch fluorescence ratio |
| --- | --- |
| CATCAATCTC | 1.12 ± 0.02 |
| CATCAGGAGG | 0.961 ± 0.035 |
| CATCATGTTT | 0.984 ± 0.015 |
| CATCATTGGC | 0.974 ± 0.092 |
| CATCCGGCCG | 1.194 ± 0.0019 |
| CATCCGGGGG | 1.56 ± 0.73 |
| CATCGGAGGG | 1.02 ± 0.029 |
| CATCGGCTGA | 0.992 ± 0.023 |
| CATCGGTCTT | 0.958 ± 0.039 |
| CATCGTAAAT | 1.06 ± 0.016 |
| CATCGTGTTA | 1.01 ± 0.022 |
| CATCGTTTTT | 1.02 ± 0.02 |
| CATCTAAAGA | 1.005 ± 0.0067 |
| CATCTAAGGG | 0.983 ± 0.042 |
| CATCTAGGGC | 1.04 ± 0.028 |
| CATCTCCCTG | 1.06 ± 0.016 |
| CATCTGGGCC | 1.01 ± 0.022 |
| CATCTTTGCA | 0.9943 ± 0.0063 |
| CATGACGTGT | 1.01 ± 0.012 |
| CATGACTCCC | 2.01 ± 0.13 |
| CATGAGGTCG | 0.989 ± 0.047 |
| CATGAGGTTA | 0.9855 ± 0.0094 |
| CATGATAAT | 0.998 ± 0.022 |
| CATGATGGGG | 0.96 ± 0.027 |
| CATGATTGAT | 0.976 ± 0.029 |

| Sequence | switch fluorescence ratio |
| --- | --- |
| CATGCAGGGT | 1.04 ± 0.016 |
| CATGCCAAGC | 1.15 ± 0.045 |
| CATGCGGCTA | 1.05 ± 0.044 |
| CATGCGGTTG | 0.978 ± 0.013 |
| CATGCGTTG | 0.9898 ± 0.0016 |
| CATGCTATTC | 1.17 ± 0.049 |
| CATGGAGATT | 0.9866 ± 0.0092 |
| CATGGATGAA | 1.04 ± 0.007 |
| CATGGATGCC | 0.998 ± 0.022 |
| CATGGCACTT | 1.009 ± 0.0041 |
| CATGGCTTAT | 1.01 ± 0.038 |
| CATGGGAAGG | 0.997 ± 0.034 |
| CATGGGAAGT | 1.01 ± 0.035 |
| CATGGGACGT | 0.988 ± 0.071 |
| CATGGGAGTT | 0.978 ± 0.025 |
| CATGGGGATT | 1.017 ± 0.0057 |
| CATGGGGCGG | 1 ± 0.052 |
| CATGGGGGAC | 0.995 ± 0.031 |
| CATGGGGGCG | 1.01 ± 0.078 |
| CATGGGGGTC | 1 ± 0.036 |
| CATGGGGTCT | 1.03 ± 0.05 |
| CATGGGGTTT | 1.01 ± 0.018 |
| CATGGTAAGT | 0.994 ± 0.053 |
| CATGGTTCGC | 0.985 ± 0.053 |
| CATGGTTCTG | 1.02 ± 0.027 |
